In this series the test system is ORC (origin recognition complex) (Saccharomyces cerevisiae). Description: EMSA. Conditions: 25 mM Tris-HCl pH 8.0, 5 mM MgCl2, 150 mM KCl, 40 ug BSA, 5% glycerol, 5 mM DTT, 1 ug calf-thymus DNA, 2 mM ATP; 5 pM probe, ORC 0.3-30 nM; 25 C 20 min; 3.5% …. In general terms: Mobility shift assays separate free from complexed probe on a gel.

What is called Kd is the free concentration of one partner at which half of the binding sites on the other are occupied at equilibrium, for simple one-to-one binding. ARS105 probe gave a Kd of more than 419 nM.
In turn, ARS201 probe had a Kd of 20.1 nM.
As for ARS214 probe, the Kd came out at 41.3 nM.
The result for ARS219.5 probe reads more than 419 nM; that for ARS305 probe, 33.1 nM; that for ARS317 (HMR-E) probe, 7.22 nM.
Regarding ARS416 (ARS1) probe, the Kd turned out to be 35.1 nM.
Take ARS422 probe: the Kd turned out to be 9.85 nM.
In turn, ARS423 probe came in with a Kd of 6.76 nM.
The result for ARS428 probe reads 91.6 nM; that for ARS512 probe, 55.1 nM; that for ARS514 probe, 4.12 nM.
For the substance ARS516 probe, the Kd worked out at 27.8 nM.
The result for ARS604 probe reads 61 nM.
Consider ARS716 probe, for which the equilibrium dissociation constant (Kd) is 39.2 nM.
Under ARS720 probe stands 33.9 nM; under ARS728 probe, 8.38 nM; under ARS818 probe, 94 nM.
Regarding ARS822 probe, the dissociation constant Kd was determined as 260 nM.
Under ARS824 probe stands 38.1 nM.
As to ARS911 probe, the Kd amounted to 87.3 nM.
Under ARS920 probe stands 8.65 nM.
The result for ARS1004 probe reads 92.3 nM; that for ARS1005 probe, more than 419 nM.
Under ARS1011 probe stands 11.1 nM; under ARS1015 probe, 63.1 nM.
The substance ARS1021 probe showed a Kd of 17.9 nM.
Under ARS1114 probe stands 33.3 nM; under ARS1123 probe, 12.3 nM; under ARS1215 probe, 55.8 nM.
The result for ARS1307 probe reads 83.7 nM.
The substance ARS1320 probe yielded a Kd of 20.9 nM.
As to ARS1323 probe, the dissociation constant (Kd) worked out at 58.6 nM.
The result for ARS1325 probe reads 63 nM; that for ARS1329 probe, 76.8 nM.
ARS1332 probe registered a Kd of 35.3 nM.
Under ARS1405 probe stands 97.2 nM.
In turn, ARS1413 probe came in with a Kd of 419 nM.
With ARS1420 probe, the Kd was 17.8 nM.
Under ARS1513 probe stands 56.3 nM; under ARS1521 probe, 90.1 nM.
Under ARS1528 probe stands more than 419 nM.
Under ARS1529.5 probe stands 192 nM.
In turn, ARS1601 probe showed a Kd of 32.8 nM.
In turn, ARS1625 probe gave a Kd of 8.67 nM.
Under ARS1631 probe stands 26.8 nM.

Values taken from article PMC3772097.
